The target of assay [1] is Skp2 (UniProt Q13309 1-424, limits assumed). The experiment in a line: cell-based or functional assay.
Assay [2] has as its target Fbw7 (UniProt Q969H0 263-707, limits assumed). As to the kind of experiment: cell-based or functional assay.
Assay [3] has as its target T1, HisβTrCP/Skp1 and HisβTrCP/GSTSkp1 (immobilised on NTA Biacore chip) (UniProt Q9Y297 175-605; P63208 1-163).
T1 construct: SPR: KD values from both surfaces (with or without the GST moiety) were averaged to give the apparent KD; also called βTrCP surfaces
As to the kind of experiment: SPR, Biacore T200, βTrCP/Skp1 immobilised. From the text: As βTrCP was His tagged, an NTA sensor chip was used. This sensor chip has a dextran surface matrix with immobilized nitrilotriacetic acid (NTA) which provides a means of capturing polyHis-tagged proteins through Nickel chelation. It was hoped that addition of Ni⁺ would orient the protein in a specific (and hopefully active) manner as it is covalently immobilised via amine coupling. Addition of EDC:NHS (N-ethyl-N′-(3-[…])-carbodiimide:N-hydroxysuccinimide) converts carboxyl groups on the dextran sensor chip surface to succinamide esters which readily form covalent bonds with primary amines. Each chip contains four flow cells (each a separate surface) which means that compounds/peptides can be passed over different forms of βTrCP and a reference surface simultaneously. If binding to βTrCP is occurring, responses should be the same (accounting for differences in density of surface etc) on each surface.
Small molecule/peptide samples to be assayed for binding to βTrCP surfaces, were provided as 10 mM stocks in 100% DMSO. All samples were tested in running buffer composed of 10 mM HEPES pH 7.4, 150 mM NaCl, 50 μM EDTA, 0.005% p20, and 1% DMSO. Serial dilutions were made using running buffer. Samples were tested over varying concentrations up to a maximum of 100 μM. Two methods of measuring the SPR response were employed: single cycle kinetics which measures the response across different concentrations of sample within a single cycle (no regeneration of surface) and a method that measures the response at a given concentration in each cycle and includes a regeneration wash after each sample injection. The regeneration solution used was the same as running buffer, but included 500 mM NaCl. Data was fitted using Biacore T200 evaluation software. KD values calculated from binding curves from both surfaces (with or without the GST moiety) were averaged to produce apparent KD's for each sample tested.
For orientation: SPR reads the build-up and loss of mass on a sensor chip optically.

Assay [4] concerns the target T2, βTrCP (tag cleaved and complexed with Skp1) (UniProt Q9Y297 175-605; P63208 1-163).
T2 construct: Protein of the FP assay (0.035 µM); also called Beta Transducin repeat-containing protein; βTrCP/Skp1
The experiment in a line: FP competition vs fluorescein-IκB peptide.

Assay [5] addresses T2, βTrCP (tag cleaved and complexed with …). As to the kind of experiment: FP competition vs fluorescein-IκB peptide. This is another data set of the same source.
For assay [6] the target is unchanged. As to the kind of experiment: FP competition vs fluorescein-IκB peptide. The source holds these as a separate data set.

Where two headings read alike, the source gives them in different places. Starred links: 1 amine or outer side, 2 acyl side, 3 side chain; linkers in the order of their positions; H or OH if unused. Non-standard residues stand in square brackets, D forms with d. *: point of attachment. Tyr(Me) = O-methyl-L-tyrosine, COc1ccc(C[C@H](N[*:1])C(=O)[*:2])cc1; Phe(4-NO2) = N[C@@H](Cc1ccc([N+](=O)[O-])cc1)C(=O)O; Benzenesulfonyl(4-OMe) = COc1ccc(S(=O)(=O)*)cc1; 2Naphthylsulfonyl = O=S(=O)(c1ccc2ccccc2c1)*; Y(Me) = COc1ccc(C[C@H](N[*:1])C(=O)[*:2])cc1; 3,4‑(MeO)2‑PhSO2 = COc1ccc(S(=O)(=O)*)cc1OC; 4‑(BuO)‑PhSO2 = CCCCOc1ccc(S(=O)(=O)*)cc1; E(OMe) = COC(=O)CC[C@H](N[*:1])C(=O)[*:2]; Phe(4-Br) = N[C@@H](Cc1ccc(Br)cc1)C(=O)O; Phe(3-F) = N[C@@H](Cc1cccc(F)c1)C(=O)O; Phe(4-F) = N[C@@H](Cc1ccc(F)cc1)C(=O)O; 1Nal = N[C@@H](Cc1cccc2ccccc12)C(=O)O; Glutaryl = O=C(CCCC(=O)[*:2])[*:1]; Suc = O=C(CCC(=O)[*:2])[*:1]; Tos = Cc1ccc(S(=O)(=O)*)cc1

Skp2, sequence (Q13309 whole entry): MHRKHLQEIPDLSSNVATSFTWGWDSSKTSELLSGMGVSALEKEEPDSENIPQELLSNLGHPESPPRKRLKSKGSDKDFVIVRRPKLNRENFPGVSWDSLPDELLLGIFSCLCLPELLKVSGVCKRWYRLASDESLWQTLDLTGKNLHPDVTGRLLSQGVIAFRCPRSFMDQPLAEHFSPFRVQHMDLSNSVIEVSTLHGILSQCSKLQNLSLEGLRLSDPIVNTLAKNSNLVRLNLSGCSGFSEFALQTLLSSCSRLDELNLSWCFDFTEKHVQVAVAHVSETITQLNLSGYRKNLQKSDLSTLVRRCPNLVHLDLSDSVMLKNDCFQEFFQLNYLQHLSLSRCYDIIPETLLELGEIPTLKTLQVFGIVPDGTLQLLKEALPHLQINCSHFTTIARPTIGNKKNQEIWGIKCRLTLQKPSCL
T2 sequence (Q9Y297 175-605, chain 1 of 2): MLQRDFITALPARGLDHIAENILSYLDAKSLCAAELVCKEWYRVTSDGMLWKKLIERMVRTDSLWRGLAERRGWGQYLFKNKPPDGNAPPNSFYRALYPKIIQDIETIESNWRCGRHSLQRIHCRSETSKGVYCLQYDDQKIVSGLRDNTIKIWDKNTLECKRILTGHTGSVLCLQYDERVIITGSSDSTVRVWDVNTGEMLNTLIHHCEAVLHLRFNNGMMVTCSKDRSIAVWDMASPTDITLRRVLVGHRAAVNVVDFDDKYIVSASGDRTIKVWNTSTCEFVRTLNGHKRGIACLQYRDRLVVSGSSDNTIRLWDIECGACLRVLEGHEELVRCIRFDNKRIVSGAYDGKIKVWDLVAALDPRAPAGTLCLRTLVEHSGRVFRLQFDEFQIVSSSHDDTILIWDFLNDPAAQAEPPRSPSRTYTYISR
T2 sequence (P63208 whole entry, chain 2 of 2): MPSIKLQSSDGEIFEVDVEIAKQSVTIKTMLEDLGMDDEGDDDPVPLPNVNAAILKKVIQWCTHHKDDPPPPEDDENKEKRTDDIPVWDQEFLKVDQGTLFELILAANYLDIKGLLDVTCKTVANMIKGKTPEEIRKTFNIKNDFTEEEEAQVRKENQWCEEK
T1 sequence (Q9Y297 175-605, chain 1 of 2): as the sequence (Q9Y297 175-605, chain 1 of 2) above
T1 sequence (P63208 whole entry, chain 2 of 2): as the sequence (P63208 whole entry, chain 2 of 2) above
Fbw7, sequence (Q969H0 263-707 limits assumed): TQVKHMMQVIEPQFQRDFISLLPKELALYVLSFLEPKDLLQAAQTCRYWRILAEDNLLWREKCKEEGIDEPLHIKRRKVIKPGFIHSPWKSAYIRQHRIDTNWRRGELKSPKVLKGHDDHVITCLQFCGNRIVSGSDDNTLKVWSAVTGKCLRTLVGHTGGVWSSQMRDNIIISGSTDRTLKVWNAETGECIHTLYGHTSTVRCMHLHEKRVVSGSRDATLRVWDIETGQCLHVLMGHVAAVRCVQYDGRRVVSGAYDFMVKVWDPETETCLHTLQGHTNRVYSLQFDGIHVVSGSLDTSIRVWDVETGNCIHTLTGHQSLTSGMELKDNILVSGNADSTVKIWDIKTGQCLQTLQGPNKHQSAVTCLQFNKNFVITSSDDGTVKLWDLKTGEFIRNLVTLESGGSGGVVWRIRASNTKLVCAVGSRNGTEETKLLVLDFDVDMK

B1: 3,4-(MeO)2-PhSO2-dEGF(3F)WE-NH2 (peptide)
peptide: {3,4‑(MeO)2‑PhSO2}-[dD]EG[Phe(3-F)]WE-NH2
SMILES: COc1ccc(S(=O)(=O)N[C@H](CC(=O)O)C(=O)N[C@@H](CCC(=O)O)C(=O)NCC(=O)N[C@@H](Cc2cccc(F)c2)C(=O)N[C@@H](Cc2c[nH]c3ccccc23)C(=O)N[C@@H](CCC(=O)O)C(N)=O)cc1OC
notes: also called UBP029
As usually defined, the Kd is the constant that tells how readily two partners part at equilibrium. A low value points to higher affinity. As a reminder, the IC50 is the concentration that gives 50% inhibition. A higher IC50 goes with a need for much substance. Take B1: in assay [1], the “% Inhibition Skp2 @ 10 µM” value was found to be 19% and the “% Inhibition Skp2 @ (100 µM)” value was found to be 19%. For the same molecule, in assay [2], the “% Inhibition Fbw7 @ 10 µM” value turned out to be 2% and the “% Inhibition Fbw7 @ (100 µM)” value came to 0%. Besides, the affinity in assay [3], expressed as Kd, was 603 nM. In addition, in assay [4], the IC50 was 42 nM. This molecule also displayed an IC50 in assay [5] of 42 nM.

B2: Suc-EG-F(4Br)-F(3F)-NH2 (peptide)
peptide: Suc-EG[Phe(4-Br)][Phe(3-F)]-NH2
SMILES: NC(=O)[C@H](Cc1cccc(F)c1)NC(=O)[C@H](Cc1ccc(Br)cc1)NC(=O)CNC(=O)[C@H](CCC(=O)O)NC(=O)CCC(=O)O
As to B2, in assay [6], the IC50 turned out to be 81000 nM.

B3: 4-(BuO)-PhSO2-dEGF(3F)WE-NH2 (peptide)
peptide: {4‑(BuO)‑PhSO2}-[dD]EG[Phe(3-F)]WE-NH2
notes: also called UBP030
Consider B3, for which, in assay [1], the “% Inhibition Skp2 @ 10 µM” value is 0% and the “% Inhibition Skp2 @ (100 µM)” value amounted to 13%. Further, in assay [2], the “% Inhibition Fbw7 @ 10 µM” value turned out to be 7% and the “% Inhibition Fbw7 @ (100 µM)” value amounted to 12%. The molecule further registered a Kd in assay [3] of 767 nM. The molecule further had an IC50 in assay [4] of 56 nM. For the same molecule, the IC50 in assay [5] came out at 56 nM.

B4: 4-(MeO)-PhSO2-DEGF(3F)WE-NH2 (peptide)
peptide: {Benzenesulfonyl(4-OMe)}-DEG[Phe(3-F)]WE-NH2
SMILES: COc1ccc(S(=O)(=O)N[C@@H](CC(=O)O)C(=O)N[C@@H](CCC(=O)O)C(=O)NCC(=O)N[C@@H](Cc2cccc(F)c2)C(=O)N[C@@H](Cc2c[nH]c3ccccc23)C(=O)N[C@@H](CCC(=O)O)C(N)=O)cc1
notes: also called UBP026
With B4, in assay [1], the “% Inhibition Skp2 @ 10 µM” value was determined as 15% and the “% Inhibition Skp2 @ (100 µM)” value worked out at 3%. In assay [2], the “% Inhibition Fbw7 @ 10 µM” value is 0% and the “% Inhibition Fbw7 @ (100 µM)” value was determined as 8%. In assay [3], this molecule showed a Kd of 495 nM. In assay [4], this molecule yielded an IC50 of 27 nM. For the same molecule, the IC50 in assay [5] stood at 27 nM.

B5: Ga-EGFFE-NH2 (peptide)
peptide: Glutaryl-EGFFE-NH2
As to B5, the IC50 in assay [6] is 65000 nM.

B6: Suc-EGF-Y(Me)-E(OMe)-NH2 (peptide)
peptide: Suc-EGF[Y(Me)][E(OMe)]-NH2
SMILES: COC(=O)CC[C@H](NC(=O)[C@H](Cc1ccc(OC)cc1)NC(=O)[C@H](Cc1ccccc1)NC(=O)CNC(=O)[C@H](CCC(=O)O)NC(=O)CCC(=O)O)C(N)=O
On to B6, for which, in assay [6], the IC50 turned out to be 71000 nM.

B7: Suc-EG-F(3F)-F(3F)-NH2 (peptide)
peptide: Suc-EG[Phe(3-F)][Phe(3-F)]-NH2
SMILES: NC(=O)[C@H](Cc1cccc(F)c1)NC(=O)[C@H](Cc1cccc(F)c1)NC(=O)CNC(=O)[C@H](CCC(=O)O)NC(=O)CCC(=O)O
As to B7, the IC50 in assay [6] amounted to 44000 nM.

B8: Suc-EGYF-NH2 (peptide)
peptide: Suc-EGYF-NH2
In the case of B8, the IC50 in assay [6] stood at 31000 nM.

B9: Suc-EGY-F(4F)-NH2 (peptide)
peptide: Suc-EGY[Phe(4-F)]-NH2
SMILES: NC(=O)[C@H](Cc1ccc(F)cc1)NC(=O)[C@H](Cc1ccc(O)cc1)NC(=O)CNC(=O)[C@H](CCC(=O)O)NC(=O)CCC(=O)O
In assay [6], B9 came in with an IC50 of 71000 nM.

B10: Suc-QGYF-NH2 (peptide)
peptide: Suc-QGYF-NH2
SMILES: NC(=O)CC[C@H](NC(=O)CCC(=O)O)C(=O)NCC(=O)N[C@@H](Cc1ccc(O)cc1)C(=O)N[C@@H](Cc1ccccc1)C(N)=O
In assay [6], B10 yielded an IC50 of 49000 nM.

B11: Suc-EGY-F(3F)-NH2 (peptide)
peptide: Suc-EGY[Phe(3-F)]-NH2
SMILES: NC(=O)[C@H](Cc1cccc(F)c1)NC(=O)[C@H](Cc1ccc(O)cc1)NC(=O)CNC(=O)[C@H](CCC(=O)O)NC(=O)CCC(=O)O
B11 showed an IC50 in assay [6] of 91000 nM.

B12: Suc-EGY-F(4NO2)-NH2 (peptide)
peptide: Suc-EGY[Phe(4-NO2)]-NH2
SMILES: NC(=O)[C@H](Cc1ccc([N+](=O)[O-])cc1)NC(=O)[C@H](Cc1ccc(O)cc1)NC(=O)CNC(=O)[C@H](CCC(=O)O)NC(=O)CCC(=O)O
In assay [6], B12 yielded an IC50 of 91000 nM.

B13: Suc-EG-1Nal-F(4NO2)-E-NH2 (peptide)
peptide: Suc-EG[1Nal][Phe(4-NO2)]E-NH2
The molecule B13 returned an IC50 in assay [6] of 68000 nM.

B14: Suc-EG-1Nal-Y(Me)-E-NH2 (peptide)
peptide: Suc-EG[1Nal][Tyr(Me)]E-NH2
B14 gave an IC50 in assay [6] of 5400 nM.

B15: 2-NaphthylSO2-dEGF(3F)WE-NH2 (peptide)
peptide: 2Naphthylsulfonyl-[dD]EG[Phe(3-F)]WE-NH2
SMILES: NC(=O)[C@H](CCC(=O)O)NC(=O)[C@H](Cc1c[nH]c2ccccc12)NC(=O)[C@H](Cc1cccc(F)c1)NC(=O)CNC(=O)[C@H](CCC(=O)O)NC(=O)[C@@H](CC(=O)O)NS(=O)(=O)c1ccc2ccccc2c1
notes: also called UBP031
On to B15, for which, in assay [1], the “% Inhibition Skp2 @ 10 µM” value was determined as 0% and the “% Inhibition Skp2 @ (100 µM)” value amounted to 17%. In addition, in assay [2], the “% Inhibition Fbw7 @ 10 µM” value was 10% and the “% Inhibition Fbw7 @ (100 µM)” value amounted to 11%. For the same molecule, the affinity in assay [3], expressed as Kd, was 262 nM. This molecule also registered an IC50 in assay [4] of 44 nM. In assay [5], this molecule had an IC50 of 44 nM.

B16: Ts-dDGF(3F)WD-NH2 (peptide)
peptide: Tos-[dD]DG[Phe(3-F)]WD-NH2
SMILES: Cc1ccc(S(=O)(=O)N[C@H](CC(=O)O)C(=O)N[C@@H](CC(=O)O)C(=O)NCC(=O)N[C@@H](Cc2cccc(F)c2)C(=O)N[C@@H](Cc2c[nH]c3ccccc23)C(=O)N[C@@H](CC(=O)O)C(N)=O)cc1
notes: also called UBP028
As for B16, in assay [1], the “% Inhibition Skp2 @ 10 µM” value is 0% and the “% Inhibition Skp2 @ (100 µM)” value worked out at 14%. Also, in assay [2], the “% Inhibition Fbw7 @ 10 µM” value worked out at 4% and the “% Inhibition Fbw7 @ (100 µM)” value is 10%. In assay [3], this molecule came in with a Kd of 637 nM. Further, the IC50 in assay [4] was found to be 81 nM. This molecule also came in with an IC50 in assay [5] of 81 nM.

B17: Ts-dDGF(3F)WE-NH2 (peptide)
peptide: Tos-[dD]DG[Phe(3-F)]WE-NH2
SMILES: Cc1ccc(S(=O)(=O)N[C@H](CC(=O)O)C(=O)N[C@@H](CC(=O)O)C(=O)NCC(=O)N[C@@H](Cc2cccc(F)c2)C(=O)N[C@@H](Cc2c[nH]c3ccccc23)C(=O)N[C@@H](CCC(=O)O)C(N)=O)cc1
notes: also called UBP025
With B17, in assay [1], the “% Inhibition Skp2 @ 10 µM” value came out at 0% and the “% Inhibition Skp2 @ (100 µM)” value came out at 22%. In assay [2], the “% Inhibition Fbw7 @ 10 µM” value was determined as 1% and the “% Inhibition Fbw7 @ (100 µM)” value was 8%. The molecule further displayed a Kd in assay [3] of 292 nM. This molecule registered a concentration for half-maximal inhibition (IC50) in assay [4] of 25 nM. In assay [5], this molecule gave an IC50 of 25 nM.

B18: Ts-dEGF(3F)WD-NH2 (peptide)
peptide: Tos-[dD]EG[Phe(3-F)]WD-NH2
SMILES: Cc1ccc(S(=O)(=O)N[C@H](CC(=O)O)C(=O)N[C@@H](CCC(=O)O)C(=O)NCC(=O)N[C@@H](Cc2cccc(F)c2)C(=O)N[C@@H](Cc2c[nH]c3ccccc23)C(=O)N[C@@H](CC(=O)O)C(N)=O)cc1
notes: also called UBP027
As to B18, in assay [1], the “% Inhibition Skp2 @ 10 µM” value was 4% and the “% Inhibition Skp2 @ (100 µM)” value was determined as 6%. In assay [2], the “% Inhibition Fbw7 @ 10 µM” value came to 3% and the “% Inhibition Fbw7 @ (100 µM)” value turned out to be 8%. Further, the Kd in assay [3] came to 680 nM. This molecule showed an IC50 in assay [4] of 34 nM. The IC50 in assay [5] was 34 nM.

Source of the values: patent US20190106460A1 (published 2019).
